# Numbering of substitutions follows the chain as printed. In names and notes the source's numbering stands.
# B1: CE115HA000 H35E one-arm antibody (antibody, human IgG1, kappa, L234A L235A, N297A, name in Kabat numbering)
# heavy: QVQLVESGGGVVQPGRSLRLSCAASGFTFSNAWMEWVRQAPGKGLEWVAQIKAKSNNYATYYAESVKGRFTISRDDSKNSLYLQMNSLKTEDTAVYYCRYVHYGAYYGVDAWGQGTTVTVSSASTKGPSVFPLAPSSKSTSGGTAALGCLVKDYFPEPVTVSWNSGALTSGVHTFPAVLQSSGLYSLSSVVTVPSSSLGTQTYICNVNHKPSNTKVDKKVEPKSCDKTHTCPPCPAPEAAGGPSVFLFPPKPKDTLMISRTPEVTCVVVDVSHEDPEVKFNWYVDGVEVHNAKTKPREEQYASTYRVVSVLTVLHQDWLNGKEYKCKVSNKALPAPIEKTISKAKGQPREPQVYTLPPSRCELTKNQVSLSCAVKGFYPSDIAVEWESNGQPENNYKTTPPVLDSDGSFFLVSKLTVDKSRWQQGNVFSCSVMHEALHNHYTQKSLSLSPDYKDDDDK
# chain: EPKSSDKTHTCPPCPAPELLGGPSVFLFPPKPKDTLMISRTPEVTCVVVDVSHEDPEVKFNWYVDGVEVHNAKTKPREEQYNSTYRVVSVLTVLHQDWLNGKEYKCKVSNKALPAPIEKTISKAKGQPREPQVCTLPPSRDELTKNQVSLWCLVKGFYPSDIAVEWESNGQPENNYKTTPPVLDSDGSFFLYSKLTVDKSRWQQGNVFSCSVMHEALHNRYTQKSLSLSP
# light: DIVMTQSPLSLPVTPGEPASISCRSSQSLVHSNRNTYLHWYQQKPGQAPRLLIYKVSNRFSGVPDRFSGSGSGTDFTLKISRVEAEDVGVYYCGQGTQVPYTFGQGTKLEIKRTVAAPSVFIFPPSDEQLKSGTASVVCLLNNFYPREAKVQWKVDNALQSGNSQESVTEQDSKDSTYSLSSTLTLSKADYEKHKVYACEVTHQGLSSPVTKSFNRGEC
# notes: one-arm antibody
# B2: CE115HA000 K52E one-arm antibody (antibody, human IgG1, kappa, L234A L235A, N297A, name in Kabat numbering)
# heavy: B1 heavy with E35H, K52E
# chain: B1 chain
# light: B1 light
# notes: one-arm antibody
# B3: CE115HA000 K43E one-arm antibody (antibody, human IgG1, kappa, L234A L235A, N297A, name in Kabat numbering)
# heavy: B1 heavy with E35H, K43E
# chain: B1 chain
# light: B1 light
# notes: one-arm antibody
# B4: CE115HA000 I51D one-arm antibody (antibody, human IgG1, kappa, L234A L235A, N297A, name in Kabat numbering)
# heavy: B1 heavy with E35H, I51D
# chain: B1 chain
# light: B1 light
# notes: one-arm antibody
# B5: CE115HA000 K43Q one-arm antibody (antibody, human IgG1, kappa, L234A L235A, N297A, name in Kabat numbering)
# heavy: B1 heavy with E35H, K43Q
# chain: B1 chain
# light: B1 light
# notes: one-arm antibody
# B6: CE115HA000 H35F one-arm antibody (antibody, human IgG1, kappa, L234A L235A, N297A, name in Kabat numbering)
# heavy: B1 heavy with E35F
# chain: B1 chain
# light: B1 light
# notes: one-arm antibody
# B7: CE115HA000 H35M one-arm antibody (antibody, human IgG1, kappa, L234A L235A, N297A, name in Kabat numbering)
# heavy: B1 heavy with E35M
# chain: B1 chain
# light: B1 light
# notes: one-arm antibody
# B8: CE115HA000 K52R one-arm antibody (antibody, human IgG1, kappa, L234A L235A, N297A, name in Kabat numbering)
# heavy: B1 heavy with E35H, K52R
# chain: B1 chain
# light: B1 light
# notes: one-arm antibody
# B9: CE115HA000 H35K one-arm antibody (antibody, human IgG1, kappa, L234A L235A, N297A, name in Kabat numbering)
# heavy: B1 heavy with E35K
# chain: B1 chain
# light: B1 light
# notes: one-arm antibody
# B10: CE115HA000 K52I one-arm antibody (antibody, human IgG1, kappa, L234A L235A, N297A, name in Kabat numbering)
# heavy: B1 heavy with E35H, K52I
# chain: B1 chain
# light: B1 light
# notes: one-arm antibody
# B11: CE115HA000 H35L one-arm antibody (antibody, human IgG1, kappa, L234A L235A, N297A, name in Kabat numbering)
# heavy: B1 heavy with E35L
# chain: B1 chain
# light: B1 light
# notes: one-arm antibody
# B12: CE115HA000 H35G one-arm antibody (antibody, human IgG1, kappa, L234A L235A, N297A, name in Kabat numbering)
# heavy: B1 heavy with E35G
# chain: B1 chain
# light: B1 light
# notes: one-arm antibody
# B13: CE115HA000 K52bN one-arm antibody (antibody, human IgG1, kappa, L234A L235A, N297A, name in Kabat numbering)
# heavy: B1 heavy with E35H, K54N
# chain: B1 chain
# light: B1 light
# notes: one-arm antibody
# B14: CE115HA000 H35T one-arm antibody (antibody, human IgG1, kappa, L234A L235A, N297A, name in Kabat numbering)
# heavy: B1 heavy with E35T
# chain: B1 chain
# light: B1 light
# notes: one-arm antibody
# B15: CE115HA000 H35V one-arm antibody (antibody, human IgG1, kappa, L234A L235A, N297A, name in Kabat numbering)
# heavy: B1 heavy with E35V
# chain: B1 chain
# light: B1 light
# notes: one-arm antibody
# B16: CE115HA000 K52D one-arm antibody (antibody, human IgG1, kappa, L234A L235A, N297A, name in Kabat numbering)
# heavy: B1 heavy with E35H, K52D
# chain: B1 chain
# light: B1 light
# notes: one-arm antibody
# B17: CE115HA000 H35Q one-arm antibody (antibody, human IgG1, kappa, L234A L235A, N297A, name in Kabat numbering)
# heavy: B1 heavy with E35Q
# chain: B1 chain
# light: B1 light
# notes: one-arm antibody
# B18: CE115HA000 K52N one-arm antibody (antibody, human IgG1, kappa, L234A L235A, N297A, name in Kabat numbering)
# heavy: B1 heavy with E35H, K52N
# chain: B1 chain
# light: B1 light
# notes: one-arm antibody
# B19: CE115HA000 K52bD one-arm antibody (antibody, human IgG1, kappa, L234A L235A, N297A, name in Kabat numbering)
# heavy: B1 heavy with E35H, K54D
# chain: B1 chain
# light: B1 light
# notes: one-arm antibody
# B20: CE115HA000 K52S one-arm antibody (antibody, human IgG1, kappa, L234A L235A, N297A, name in Kabat numbering)
# heavy: B1 heavy with E35H, K52S
# chain: B1 chain
# light: B1 light
# notes: one-arm antibody
# B21: CE115HA000 H35I one-arm antibody (antibody, human IgG1, kappa, L234A L235A, N297A, name in Kabat numbering)
# heavy: B1 heavy with E35I
# chain: B1 chain
# light: B1 light
# notes: one-arm antibody
# B22: CE115HA000 K52bL one-arm antibody (antibody, human IgG1, kappa, L234A L235A, N297A, name in Kabat numbering)
# heavy: B1 heavy with E35H, K54L
# chain: B1 chain
# light: B1 light
# notes: one-arm antibody
# B23: CE115HA000 H35S one-arm antibody (antibody, human IgG1, kappa, L234A L235A, N297A, name in Kabat numbering)
# heavy: B1 heavy with E35S
# chain: B1 chain
# light: B1 light
# notes: one-arm antibody
# B24: CE115HA000 H35W one-arm antibody (antibody, human IgG1, kappa, L234A L235A, N297A, name in Kabat numbering)
# heavy: B1 heavy with E35W
# chain: B1 chain
# light: B1 light
# notes: one-arm antibody
# B25: CE115HA000 K52Y one-arm antibody (antibody, human IgG1, kappa, L234A L235A, N297A, name in Kabat numbering)
# heavy: B1 heavy with E35H, K52Y
# chain: B1 chain
# light: B1 light
# notes: one-arm antibody
# B26: CE115HA000 H35Y one-arm antibody (antibody, human IgG1, kappa, L234A L235A, N297A, name in Kabat numbering)
# heavy: B1 heavy with E35Y
# chain: B1 chain
# light: B1 light
# notes: one-arm antibody
# B27: CE115HA000 K52bA one-arm antibody (antibody, human IgG1, kappa, L234A L235A, N297A, name in Kabat numbering)
# heavy: B1 heavy with E35H, K54A
# chain: B1 chain
# light: B1 light
# notes: one-arm antibody
# B28: CE115HA000 H35N one-arm antibody (antibody, human IgG1, kappa, L234A L235A, N297A, name in Kabat numbering)
# heavy: B1 heavy with E35N
# chain: B1 chain
# light: B1 light
# notes: one-arm antibody
# B29: CE115HA000 K52F one-arm antibody (antibody, human IgG1, kappa, L234A L235A, N297A, name in Kabat numbering)
# heavy: B1 heavy with E35H, K52F
# chain: B1 chain
# light: B1 light
# notes: one-arm antibody
# B30: CE115HA000 I51E one-arm antibody (antibody, human IgG1, kappa, L234A L235A, N297A, name in Kabat numbering)
# heavy: B1 heavy with E35H, I51E
# chain: B1 chain
# light: B1 light
# notes: one-arm antibody
# B31: CE115HA000 K52W one-arm antibody (antibody, human IgG1, kappa, L234A L235A, N297A, name in Kabat numbering)
# heavy: B1 heavy with E35H, K52W
# chain: B1 chain
# light: B1 light
# notes: one-arm antibody
# B32: CE115HA000 K52H one-arm antibody (antibody, human IgG1, kappa, L234A L235A, N297A, name in Kabat numbering)
# heavy: B1 heavy with E35H, K52H
# chain: B1 chain
# light: B1 light
# notes: one-arm antibody
# B33: CE115HA000 H35R one-arm antibody (antibody, human IgG1, kappa, L234A L235A, N297A, name in Kabat numbering)
# heavy: B1 heavy with E35R
# chain: B1 chain
# light: B1 light
# notes: one-arm antibody
# Target: T1, CD3 epsilon homodimer protein (UniProt P07766 23-126)
# T1 construct: also called CD3 (CD3 epsilon)
# T1 sequence (P07766 23-126): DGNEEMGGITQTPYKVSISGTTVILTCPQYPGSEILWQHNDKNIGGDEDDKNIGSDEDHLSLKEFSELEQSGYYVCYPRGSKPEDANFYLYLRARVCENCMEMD
# Assay: SPR Biacore T200, antibody over immobilised CD3e homodimer;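 further: CD3 epsilon homodimer amine-coupled on a CM4 chip, run at 25 °C in HBS-EP+, Z = bound amount of each single-residue H chain variant over that of the parent antibody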
row,ratio of amounts bound (Z=Y/X vs CE115HA000),Binder
1,0.19,B1
2,0.26,B2
3,0.9,B3
4,0.29,B4
5,0.99,B5
6,0.21,B6
7,0.29,B7
8,0.91,B8
9,0.15,B9
10,0.33,B10
11,0.11,B11
12,0.22,B12
13,0.27,B13
14,0.26,B14
15,0.22,B15
16,0.25,B16
17,0.13,B17

row,ratio of amounts bound (Z=Y/X vs CE115HA000),Binder
1,0.34,B18
2,0.27,B19
3,0.28,B20
4,0.12,B21
5,0.61,B22
6,0.23,B23
7,0.22,B24
8,0.18,B25
9,0.16,B26
10,0.67,B27
11,0.35,B28
12,0.17,B29
13,0.55,B30
14,0.22,B31
15,0.22,B32
16,0.14,B33
